Results from US20250367269A1, “KYNURENINE AMINOTRANSFERASE AND PRODUCTS THEREOF FOR THE TREATMENT OF ARTHRITIC DISEASES” (Institut National de Recherche Pour L'Agriculture, …, priority 2022, published 2025).

Experiments:
[1] = system: collagen-antibody induced arthritis; assay: collagen-antibody induced arthritis model; type: in vivo, C57BL6J male mice
Description: C57BL6J male mice were injected intraperitoneally with a cocktail of arthritogenic anti-type II collagen (2 mg/mouse) at day 0. At day 3, mice received an injection of lipopolysaccharide from bacterial cells walls of E. coli 055: B5. The severity of arthritis was evaluated every other day on each paw with a score from 0 to 4, for a maximal score of 16 by animal (0=normal joint, 1=moderate redness and slight swelling or swelling of one or two digits, 2=moderate redness and moderate paw swelling or swelling more than three digits, 3=redness and swelling from tarsal joints to metatarsal joints, 4=severe redness and severe swelling of the entire paw). Hindpaw swelling was measured at the same time by plethysmography. Paw volume determined prior to disease induction was used as the baseline. The development of arthritis was analyzed by histological assessment. Hindpaws were dissected then fixed in 4% formalin (Labonord). Hindpaws were further decalcified in 10% EDTA for 1 month and embedded in paraffin blocks. Five μm-thick tissue sections were cut and two stainings were performed, hematoxylin, eosin and toluidine blue. Histological examination was carried out blindly by three independent observers. Synovium from ankle joint was graded on a scale of 0 to 3 (with 0=normal and 3=major changes) for synovial hyperplasia (width of lining layer) and tissue cell infiltration. […]

[2] = AADAT activity test (transformation of KYNU into KYNA and XANA); type: biochemical; conditions: 15 min in the presence of KYNU (1000 μM), FIG. 3F
Description: The activity test is based on the disappearance of kynurenine and 3-hydroxykynurenin which are substrates of AADAT. A reaction mixture (50 μL final volume) containing 10 mM L-kynurenine or 3-hydroxykynurenin, 2 mM α-oxoglutarate, 40 μM PLP (pyridoxal 5′-phosphate) and 0 or 1 μL of the purified protein sample prepared in buffer 100 mM potassium phosphate (pH 7.4). Then, the mixture was incubated at 37° C. for 15 min, and the reaction was stopped by the addition of an equal volume of 30% acetic acid. The supernatant of the reaction mixture, obtained by centrifugation at 3000 g for 10 min at 4° C., was mixed equally with Ehrlich's solution and incubated 15 min at room temperature to have a colorimetric reaction. In parallel, a standard range of kynurenine or 3-hydroxykynurenin from 0 μM to 1000 μM was made under the same conditions. The amount of kynurenine or 3-hydroxykynurenin present in the sample was measured with a spectrophotometer at an OD of 492 nm and calculated using the standard range (FIG. 3E). A verification of the production of KYNA and XANA in vitro via the action of our enzyme during 15 min in the presence of KYNU (1000 μM) was carried out (FIG. 3F).

B1: AADAT: Recombinant murine alpha-aminoadipate aminotransferase (SEQ ID NO:13) produced in E. coli and purified by affinity chromatography (protein, listed as Mus musculus)
chain: MNYSRFLTATSLARKPSPIRTTADILSKAPKTLISLAPGSPNPSMFPFKSAAFTVENGSTIRFEDDLIKRALQYSPSYGIPELLSWLKQFQVKLHNPPTVNYPPNQGQMDLCITSGCQDGLCKAFEMLINPGDTILVNEPLFPGTLYAMKPLGCNIINVPSDEHGIIPEGLKKILSQWKPEDSKDPTKKTPKFLYTVPNGNNPTGNSLTGDRKKEIYELARKYDFLIIEDDPYYFLQFSKPWEPTFLSMDVDGRVIRADTFSKTVSSGLRVGFMTGPKTLIQNIVLHTQVSSVHACTLSQLMILQLLHQWGEEGFLAHIDRTIDFYKNQRDSILAAADKWLRGLAEWHVPKAGMFLWIKVKGISDTKQLIEEKAIEREVLLVPGNGFFIDGSAPTSFFRASFSLATPAQMDTAFQRLAQLIKESL
For B1, the arthritis severity ([1]; daily i.p. recombinant AADAT ~50 μg/d vs vehicle, confirmed by oedema swelling measure and histology (FIG. 4)) was “drastically reduced”, the “maximal clinical score mean” value ([1]; score 0 to 4 per paw, maximal 16 by animal, daily i.p. recombinant AADAT ~50 μg/d, 2 experiments, 8 mice per group, vehicle 6.9) was 2.6 and the “transformation of KYNU into KYNA and XANA in vitro” value [2] was “dose effect can be observed”.
